Test results from paper PMC3458052, “Single Amino Acid Substitutions in the Chemotactic Sequence of Urokinase Receptor Modulate Cell Migration and Invasion” (PLoS ONE, 2012).

Target: T1, uPAR carrying the S90P substitution (human, UniProt Q03405 23-305, S90P)
T1 construct: human uPAR, whole cDNA in pcDNA3 with S90P made by site-specific mutagenesis, on 293 cells; also called uPAR^S90P; source: on intact adherent cells and in RIPA lysate
Test: radioligand binding; 10 nM ^125I-Vn with increasing unlabeled Vn on adherent transfected 293 clones (2×10^5 cells/well), 3 hours at 4°C, binding buffer DMEM, 1 mg/ml BSA, 10 mM Hepes pH 7.4; surface-bound label recovered by acid wash pH 3.0; apparent Kd; cells also carry endogenous αvβ5
Conditions: one partner purified

T1 sequence (Q03405 23-305 S112P): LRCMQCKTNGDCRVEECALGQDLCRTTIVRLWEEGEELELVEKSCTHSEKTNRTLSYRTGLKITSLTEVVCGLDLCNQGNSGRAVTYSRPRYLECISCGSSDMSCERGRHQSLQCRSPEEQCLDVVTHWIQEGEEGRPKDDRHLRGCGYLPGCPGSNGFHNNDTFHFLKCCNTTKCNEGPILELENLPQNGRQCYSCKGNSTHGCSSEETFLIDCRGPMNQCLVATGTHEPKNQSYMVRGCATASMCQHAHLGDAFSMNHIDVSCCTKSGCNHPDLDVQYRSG

IC50: ~10 nM
B1: vitronectin (ligand, UniProt P04004 20-478, looked up)
chain: DQESCKGRCTEGFNVDKKCQCDELCSYYQSCCTDYTAECKPQVTRGDVFTMPEDEYTVYDDGEEKNNATVHEQVGGPSLTSDLQAQSKGNPEQTPVLKPEEEAPAPEVGASKPEGIDSRPETLHPGRPQPPAEEELCSGKPFDAFTDLKNGSLFAFRGQYCYELDEKAVRPGYPKLIRDVWGIEGPIDAAFTRINCQGKTYLFKGSQYWRFEDGVLDPDYPRNISDGFDGIPDNVDAALALPAHSYSGRERVYFFKGKQYWEYQFQHQPSQEECEGSSLSAVFEHFAMMQRDSWEDIFELLFWGRTSAGTRQPQFISRDWHGVPGQVDAAMAGRIYISGMAPRPSLAKKQRFRHRNRKGYRSQRGHSRGRNQNSRRPSRATWLSLFSSEESNLGANNYDDYRMDWLVPATCEPIQSVFFFSGDKYYRVNLRTRRVDTVDPPYPRSIAQYWLGCPAPGHL
modifications: ^125I (radio-iodinated with Na^125I using IODO-BEADS) on the tracer; the competitor is unlabeled
notes: vitronectin (Vn), bought from Promega; also called Vn; ^125I-Vn; source: bought: Promega
